Results reported in IntAct's records for PubMed 30845169.

B1: Centrosomal protein POC5 (Homo sapiens), Q8NA72 (parent)
chain: MSSDEEKYSLPVVQNDSSRGSSVSSNLQEEYEELLHYAIVTPNIEPCASQSSHPKGELVPDVRISTIHDILHSQGNNSEVRETAIEVGKGCDFHISSHSKTDESSPVLSPRKPSHPVMDFFSSHLLADSSSPATNSSHTDAHEILVSDFLVSDENLQKMENVLDLWSSGLKTNIISELSKWRLNFIDWHRMEMRKEKEKHAAHLKQLCNQINELKELQKTFEISIGRKDEVISSLSHAIGKQKEKIELMRTFFHWRIGHVRARQDVYEGKLADQYYQRTLLKKVWKVWRSVVQKQWKDVVERACQARAEEVCIQISNDYEAKVAMLSGALENAKAEIQRMQHEKEHFEDSMKKAFMRGVCALNLEAMTIFQNRNDAGIDSTNNKKEEYGPGVQGKEHSAHLDPSAPPMPLPVTSPLLPSPPAAVGGASATAVPSAASMTSTRAASASSVHVPVSALGAGSAATAASEEMYVPRVVTSAQQKAGRTITARITGRCDFASKNRISSSLAIMGVSPPMSSVVVEKHHPVTVQTIPQATAAKYPRTIHPESSTSASRSLGTRSAHTQSLTSVHSIKVVD

Variants of: B1
Details: with tba4a_human TUBA4A

effect of a mutation on the interaction | Variant
decreasing interaction strength | MSSDEEKYSLPVVQNDSSRGSSVSSNLQEEYEELLHYAIVTPNIEPCASQSSHPKGELVPDVRISTIHDILHSQGNNSEVRETAIEVGKGCDFHISSHSKTDESSPVLSPRKPSHPVMDFFSSHLLADSSSPATNSSHTDAHEILVSDFLVSDENLQKMENVLDLWSSGLKTNIISELSKWRLNFIDWHRMEMRKEKEKHAAHLKQLCNQINELKELQKTFEISIGRKDEVISSLSHAIGKQKEKIELMRTFFHWRIGHVRARQDVYEGKLADQYYQRTLLKKVWKVWRSVVQKQWKDVVERACQARAEEVCIQISNDYEAKVAMLSGALENAKAEIQRMQHEKEHFEDSMKKAFMRGVCALNLEAMTIFQNRNDAGIDSTNNKKEEYGPGVQGKEHSAHLDPSAPPMPLPVTSPLLPSPPAAVGGASVTAVPSAASMTSTRAASASSVHVPVSALGAGSAATAASEEMYVPRVVTSAQQKAGRTITARITGRCDFASKNRISSSLAIMGVSPPMSSVVVEKHHPVTVQTIPQATAAKYPRTIHPESSTSASRSLGTRSAHTQSLTSVHSIKVVD [A429V]

Variants of: B1
Details: with tba4a_human TUBA4A
Remark: another data set of the same source

effect of a mutation on the interaction | Variant
disrupting interaction strength | MSSDEEKYSLPVVQNDSSRGSSVSSNLQEEYEELLHYAIVTPNIEPCASQSSHPKGELVPDVRISTIHDILHSQGNNSEVRETAIEVGKGCDFHISSHSKTDESSPVLSPRKPSHPVMDFFSSHLLADSSSPATNSSHTDAHEILVSDFLVSDENLQKMENVLDLWSSGLKTNIISELSKWRLNFIDWHRMEMRKEKEKHAAHLKQLCNQINELKELQKTFEISIGRKDEVISSLSHAIGKQKEKIELMRTFFHWRIGHVRARQDVYEGKLADQYYQRTLLKKVWKVWRSVVQKQWKDVVERACQARAEEVCIQISNDYEAKVAMLSGALENAKAEIQRMQHEKEHFEDSMKKAFMRGVCALNLEAMTIFQNRNDAGIDSTNNKKEEYGPGVQGKEHSAHLDPSAPPMPLPVTSPLLPSPPAAVGGASVTAVPSAASMTSTRAASASSVHVPVSALGAGSAATAASEEMYVPRVVTSAQQKAGRTITARITGRCDFASKNRISSSLAIMGVSPPMSSVVVEKHHPVTVQTIPQATAAKYPRTIHPESSTSASRSLGTRSAHTQSLTSVHSIKVVD [A429V]
